Measurements: PMC11672753

Key:
[1] = molecular target: S15-HDEL (human)
[2] = molecular target: S15-FX (human)
S15-FX (human), sequence (heavy, as listed by the source, chain 1 of 2): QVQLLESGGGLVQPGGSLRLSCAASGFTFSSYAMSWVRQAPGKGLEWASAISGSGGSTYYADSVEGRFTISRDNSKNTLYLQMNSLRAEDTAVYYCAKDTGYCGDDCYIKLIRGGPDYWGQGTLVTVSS
S15-FX (human), sequence (light, as listed by the source, chain 2 of 2): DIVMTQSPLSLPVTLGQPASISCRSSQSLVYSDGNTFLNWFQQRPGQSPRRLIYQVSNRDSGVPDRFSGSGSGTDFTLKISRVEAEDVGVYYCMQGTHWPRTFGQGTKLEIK

S15-HDEL (human), sequence (heavy, as listed by the source, chain 1 of 2): as the sequence (heavy, as listed by the source, chain 1 of 2) above
S15-HDEL (human), sequence (light, as listed by the source, chain 2 of 2): as the sequence (light, as listed by the source, chain 2 of 2) above

FcγRIIIa-dimer, biotinylated (from UniProt P08637 17-254) (receptor)
NK cell activation (CD107 and IFNγ expression) by antigen-bound antibody, against the WT plant antibody [1]: 3 fold
NK cell activation (CD107 and IFNγ expression) by antigen-bound antibody, against the WT plant antibody [2]: 3 fold
